Test results taken from patent US20080267949A1, “Peptides capable of binding to serum proteins” (Ablynx N.V., priority 2006, published 2008).
Ends that are not written are not given here. c2 linker = not defined here

Experiments:
[1] = biological target: T1, rhErbB2-Fc antigen (R&D Systems) (human, UniProt P04626 23-652); experiment: SPR: rhErbB2-Fc on a CM5 chip (~3000 RU), 2D3 injected in the presence of 25 µM HSA (concentration of 2D3 not given)
T1 construct: Bought; also called HER2 antigen; Her-2 antigen; not shown: Fc part of the bought fusion; not described
Description: (§1) FIG. 11: Surface plasmon resonance analysis of simultaneous binding of 2D3-17D12 fusion protein to HER2 antigen and human serum albumin (HSA). 2D3-17D12 fusion protein was pre-incubated or not with 1 and 5 μM HSA, followed by flow over immobilized 2D3 target antigen, rhErbB2-Fc. The dotted line represents the binding characteristics of 2D3 in presence of 25 μM HSA.

[2] = biological target: T2, human serum albumin (human, UniProt P02768 25-609); experiment: phage binding assay: 10 µg/mL HSA coated on Maxisorp, M13 phage displaying the peptide on pIII in 1/2 dilution series, anti-M13 + goat anti-mouse IRDye700, Odyssey intensity
T2 construct: Bought protein; also called HSA
Description: After two selection rounds, monoclonal phage were screened for binding on HSA versus negative control antigen, ovalbumin (A5378, Sigma). Wells of a Maxisorp microtiter plate (Nunc) were coated using 10 μg/mL HSA or ovalbumin and blocked with SuperBlock T20 PBS Blocking Buffer (Pierce) to prevent non-specific binding. Phages, produced in 96-well plate, were diluted 1/10 in 1:1 (v:v) Superblock T20 PBS Blocking Buffer:PBS+0.05% Tween-20 and incubated on both HSA and ovalbumin. Bound phages were detected using anti-M13 (GE Healthcare) and goat anti-mouse IRDye700 (Rockland) and signals were read-out on Odyssey (LI-COR Biosciences). […] This peptide is referred to as 17D12. Its full amino acid sequence is given in SEQ ID NO: 1, and its encoding nucleotide sequence is given in SEQ ID NO:2. The amino acid sequence of the CDR3 loop is given in SEQ ID NO:3.
The phage binding assay was performed essentially as described in example 3. Phages, produced in 10 mL culture volume, were incubated on both HSA and ovalbumin in a ½ dilution series, starting with 7.5×10¹¹ phages/mL. […] Non-specific binding to ovalbumin is slightly higher for the constrained truncated peptide.

[3] = biological target: T3, human tumor necrosis factor α (human, UniProt P01375 77-233); experiment: phage binding assay on coated Maxisorp wells, 5 phage dilutions per peptide, Odyssey image
T3 construct: Negative control antigen; also called TNF
Description: (§2) Binding of 17D12, as selected from primary screening after 2 selection rounds on HSA, to serum albumin of different species [mouse serum albumin (MSA, A3559, Sigma), cynomolgus serum albumin (CSA, in-house production), bovine serum albumin (BSA, A6003, Sigma) and HSA] and to negative control antigens [ovalbumin, human tumor necrosis factor α (TNF, in-house production)] was assessed using different phage concentrations. Additionally, similar binding studies were performed with two truncated variants of 17D12. Both peptides, i.e. 17D12-CDR3-NC (SEQ ID NO: 26) and 17D12-CDR3-C (SEQ ID NO;27), lack the flanking FR residues of 17D12 and the former is a non-constrained loop, whereas the latter is constrained (FIG. 4).
(§3) The phage binding assay was performed essentially as described in example 4. Full length 17D12 peptide as well as truncated peptides, 17D12-CDR3-NC and 17D12-CDR3-C, bind dose-dependently to HSA and CSA, whereas reactivity to MSA and BSA was not apparent in the assay performed (FIG. 6). There is no significant non-specific binding of 17D12 and 17D12-CDR3-NC to irrelevant proteins tested (ovalbumin and TNF). In contrast, there is a subtle degree of non-specific binding with the constrained truncated peptide.

[4] = biological target: T4, bovine serum albumin (bovine, UniProt P02769 25-607); experiment: as above
T4 construct: also called BSA
Description: as §2, §3

[5] = biological target: T5, mouse serum albumin (mouse, UniProt P07724 25-608); experiment: as above
T5 construct: also called MSA
Description: as §2, §3

[6] = biological target: T6, cynomolgus serum albumin (cynomolgus, UniProt A2V9Z4 25-608); experiment: phage binding assay on coated Maxisorp wells, 5 phage dilutions per peptide (concentrations not given), Odyssey image
T6 construct: also called CSA; cynoSA
Description: as §2, §3

[7] = biological target: T7, ovalbumin (negative control antigen) (UniProt P01012 2-386); experiment: phage binding assay: ovalbumin coated on Maxisorp, M13 phage in 1/2 dilution series from 10^12 phages/mL, Odyssey intensity
T7 construct: Bought protein
T7 sequence (looked up): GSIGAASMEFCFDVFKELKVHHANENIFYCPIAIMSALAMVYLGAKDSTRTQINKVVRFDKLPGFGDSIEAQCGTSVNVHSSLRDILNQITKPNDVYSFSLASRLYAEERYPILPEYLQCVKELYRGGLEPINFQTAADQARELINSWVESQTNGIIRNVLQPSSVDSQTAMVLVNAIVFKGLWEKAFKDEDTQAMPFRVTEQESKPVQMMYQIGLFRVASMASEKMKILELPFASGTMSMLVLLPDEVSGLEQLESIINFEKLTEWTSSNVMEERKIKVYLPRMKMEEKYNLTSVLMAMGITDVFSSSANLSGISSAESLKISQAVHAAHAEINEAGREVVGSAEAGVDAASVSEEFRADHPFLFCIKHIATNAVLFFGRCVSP
Description: The phage binding assay to HSA and ovalbumin was performed essentially as described in example 4. Phages, produced in 10 mL culture volume, were incubated on both HSA and ovalbumin in a ½ dilution series, starting with 10¹² phages/mL. Dose-dependent binding to HSA was retained upon fusion of the peptide 17D12 at the C-terminus of a non-albumin binding intact VHH in the presence or absence of a GlySer linker (FIG. 9).

[8] = biological target: T1, rhErbB2-Fc antigen (R&D Systems); experiment: SPR: rhErbB2-Fc on a CM5 chip (~3000 RU), 2D3-17D12 injected alone or pre-incubated with 1 or 5 µM HSA (concentration of 2D3-17D12 not given)
Description: as §1

[9] = biological target: T8, human serum albumin (HSA) (Homo sapiens, UniProt P02768); type: binding
T8 construct: purchased Sigma A5763
Description: FIG. 10: Surface plasmon resonance analysis of the binding of Nanobody® (2D3) and Nanobody® fusion peptide (2D3-17D12) on human serum albumin (HSA). Coating of the chip (CM5) was performed by amine coupling using NHS/EDC for activation and ethanolamine for deactivation (Biacore amine coupling kit). hip coated with 7000 RU human serum albumin (Sigma, 99% pure) and 2500 RU irrelevant protein antigen. 2D3 and 2D3-17D12 was successively injected over the chip in increasing concentrations (1.25 μM, 2.5 μM and 5 μM). HBS-EP was used as flow buffer at a rate of 10 μl min-1.20 μl of sample was injected for 20 s.
The 2D3-17D12 fusion protein […] […] […] (SEQ ID NO: 30) was expressed in E. coli TG1 cells. The fusion protein was purified by IMAC/SEC and binding to HSA was assessed in BIAcore™ 3000. Therefore, a dilution series of 2D3-17D12 fusion protein and 2D3 Nanobody was injected on a CM5 chip coated with high density HSA (7000RU). […] Calculated affinity of 2D3-17D12 for HSA is ˜10 μM.

[10] = tested on: irrelevant protein; experiment: Surface plasmon resonance control on CM5 chip coated with irrelevant protein; type: binding; conditions: 2.5 μM injected; 2400 RU irrelevant protein
[11] = biological target: T9, rhErbB2-Fc antigen (Homo sapiens, UniProt P04626); experiment: Surface plasmon resonance: simultaneous binding to HER2 and HSA, chip coated with rhErbB2-Fc; conditions: pre-incubated with HSA (1 and 5 μM); ~3000 RU rhErbB2-Fc
T9 construct: purchased R&D Systems
Description: as §1
To examine whether the 2D3 Nanobody and the 17D12 CDR3 can simultaneously bind their respective target antigen (Her-2 antigen for 2D3 Nanobody, albumin for 17D12 CDR3), the following experiment was performed. 2D3-17D12 fusion protein was pre-incubated or not with increasing concentration of HSA and then injected on a CM5 chip coated with rhErbB2-Fc antigen (R&D Systems) at a density of ˜3000 RU.

[12] = biological target: T7, ovalbumin (negative control antigen); experiment: phage binding assay on coated Maxisorp wells, 5 phage dilutions per peptide, Odyssey image
Description: as §2, §3

[13] = biological target: T2, human serum albumin; experiment: SPR: biotinylated peptide captured on a streptavidin sensorchip, HSA injected for 4 min at 10 µl/min, reference-subtracted
Description: Binding of the 2 synthetic peptides Ala-17D12-CDR3 and Cys-Ala-17D12-CDR3 to HSA was assessed by surface plasmon resonance. The biotinylated peptides are each captured on streptavidin-coated sensorchip SA T071122. HSA binding is assessed at various concentrations. The samples were injected for 4 min at a flow rate of 10 ul/min over the activated and reference surfaces to allow for binding to chip-bound antigen. Next, binding buffer without HSA is sent over the chip at the same flow rate to allow for dissociation of bound HSA. After 10 min, remaining bound analyte is removed by injecting regeneration solution (50 mM NaOH).

T3 sequence (P01375 77-233 limits assumed): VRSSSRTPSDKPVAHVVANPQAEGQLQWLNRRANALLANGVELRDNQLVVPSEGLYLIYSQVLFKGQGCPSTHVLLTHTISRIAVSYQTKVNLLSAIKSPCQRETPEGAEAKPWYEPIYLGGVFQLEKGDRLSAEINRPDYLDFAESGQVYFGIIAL
T4 sequence (P02769 25-607 limits assumed): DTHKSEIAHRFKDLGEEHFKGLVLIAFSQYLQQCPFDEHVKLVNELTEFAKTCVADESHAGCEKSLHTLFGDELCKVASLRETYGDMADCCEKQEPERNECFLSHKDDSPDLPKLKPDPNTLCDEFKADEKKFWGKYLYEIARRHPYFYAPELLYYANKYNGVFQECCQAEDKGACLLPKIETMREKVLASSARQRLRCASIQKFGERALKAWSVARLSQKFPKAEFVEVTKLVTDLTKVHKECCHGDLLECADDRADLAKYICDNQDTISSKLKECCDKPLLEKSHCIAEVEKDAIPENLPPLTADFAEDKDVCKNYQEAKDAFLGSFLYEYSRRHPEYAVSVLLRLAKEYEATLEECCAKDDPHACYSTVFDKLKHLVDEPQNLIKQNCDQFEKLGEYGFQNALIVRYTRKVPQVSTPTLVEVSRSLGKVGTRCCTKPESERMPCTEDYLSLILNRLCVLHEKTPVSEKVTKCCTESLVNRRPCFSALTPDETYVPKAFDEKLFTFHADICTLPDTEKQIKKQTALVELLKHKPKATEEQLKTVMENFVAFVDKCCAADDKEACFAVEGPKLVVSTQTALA
T6 sequence (A2V9Z4 25-608 limits assumed): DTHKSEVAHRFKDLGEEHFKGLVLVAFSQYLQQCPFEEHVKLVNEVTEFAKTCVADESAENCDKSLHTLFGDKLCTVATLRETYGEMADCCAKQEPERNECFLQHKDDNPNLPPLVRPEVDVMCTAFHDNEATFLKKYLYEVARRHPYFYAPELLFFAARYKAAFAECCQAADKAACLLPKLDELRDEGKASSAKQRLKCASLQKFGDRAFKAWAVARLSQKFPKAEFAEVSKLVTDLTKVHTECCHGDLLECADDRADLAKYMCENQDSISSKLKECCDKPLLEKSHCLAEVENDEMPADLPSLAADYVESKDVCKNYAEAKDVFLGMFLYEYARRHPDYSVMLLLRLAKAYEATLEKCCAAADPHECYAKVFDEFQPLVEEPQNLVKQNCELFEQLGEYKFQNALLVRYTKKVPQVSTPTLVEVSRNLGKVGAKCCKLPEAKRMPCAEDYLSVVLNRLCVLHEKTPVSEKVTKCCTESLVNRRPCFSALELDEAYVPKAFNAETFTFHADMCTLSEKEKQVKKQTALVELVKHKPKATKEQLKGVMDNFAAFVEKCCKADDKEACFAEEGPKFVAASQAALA
T5 sequence (P07724 25-608 limits assumed): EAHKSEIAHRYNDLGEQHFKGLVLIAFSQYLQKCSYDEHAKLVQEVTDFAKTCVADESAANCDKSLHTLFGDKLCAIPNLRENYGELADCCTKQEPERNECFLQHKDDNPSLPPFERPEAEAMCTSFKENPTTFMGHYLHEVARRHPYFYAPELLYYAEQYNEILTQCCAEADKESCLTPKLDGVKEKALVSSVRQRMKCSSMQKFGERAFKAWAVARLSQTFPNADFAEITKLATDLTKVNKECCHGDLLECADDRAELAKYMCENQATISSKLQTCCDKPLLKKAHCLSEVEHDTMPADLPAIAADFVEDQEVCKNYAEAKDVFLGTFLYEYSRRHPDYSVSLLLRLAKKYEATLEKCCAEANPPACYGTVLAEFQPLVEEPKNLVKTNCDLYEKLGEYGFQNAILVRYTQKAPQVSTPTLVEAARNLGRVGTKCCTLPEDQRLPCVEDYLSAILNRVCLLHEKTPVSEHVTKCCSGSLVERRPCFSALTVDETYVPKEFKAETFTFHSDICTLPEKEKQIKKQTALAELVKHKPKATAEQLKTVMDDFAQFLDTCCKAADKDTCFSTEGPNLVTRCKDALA

B1: 2D3 Nanobody (VHH that specifically binds to HER2) (VHH)
VHH: EVQLVESGGSLVQPGGSLRLSCAASGFTFDDYAMSWVRQVPGKGLEWVSSINWSGTHTDYADSVKGRFTISRNNANNTLYLQMNSLKSEDTAVYYCAKNWRDAGTTWFEKSGSAGQGTQVTVSS
notes: also called VHH 2D3
binding result [1]: binds

B2: 17D12 peptide (CDR3 loop with flanking FR3 and FR4 residues), expressed on pIII of M13 phage (peptide)
peptide: DTAVYYCNAAASYSDYDVFGGGTDFGPWGQGTQV
modifications: not fully specified (C-terminus)
notes: also called full length 17D12; not shown: library construct: followed by His6 and c-myc tags, a short Gly-Ala-Ala linker and M13 pIII
EC50 (read off the curve) [2]: ~5e+10 phage/mL
binding result [3]: no binding
binding result [4]: no binding
binding result [5]: no binding
binding result [6]: binds
binding result [7]: no binding (tested: 100 x10^10 phage/mL)

B3: 2D3-17D12 fusion protein (other)
chain: EVQLVESGGSLVQPGGSLRLSCAASGFTFDDYAMSWVRQVPGKGLEWVSSINWSGTHTDYADSVKGRFTISRNNANNTLYLQMNSLKSEDTAVYYCAKNWRDAGTTWFEKSGSAGQGTQVTVSSDTAVYYCNAAASYSDYDVFGGGTDFGPWGQGTQVGGGS
notes: Soluble VHH-peptide fusion expressed in E. coli TG1 and purified by IMAC/SEC; also called Nanobody fusion peptide (2D3-17D12)
binding result [8]: binds

B4: 2D3-17D12: fusion of HER2-binding VHH 2D3 with HSA-binding peptide 17D12, expressed in E. coli TG1 (protein)
chain: B3 chain
modifications: 2D3-17D12 fusion protein
Kd [9]: ~10 µM
Binding to HSA (SPR) ([9]; 7000 RU HSA, injected at 1.25, 2.5 and 5 μM): dose-dependent binding
Binding to irrelevant protein (SPR control) [10]: no specific binding was detected
Off-rates on rhErbB2-Fc, premixed with HSA compared to control injection [11]: slightly higher but comparable off-rates

AAASYSDYDVFGGGTDFGPA (peptide, not shown: large carriers, not fully specified, Tested as phage)
EC50 (read off the curve) [2]: ~7e+10 phage/mL
binding result [3]: no binding
binding result [4]: no binding
binding result [5]: no binding
binding result [12]: no binding
binding result [6]: binds

B5: Cys-Ala-17D12-CDR3 synthetic biotinylated peptide (acetyl-CAAASYSDYDVFGGGTDFGP-c2 linker-biotin) (peptide)
peptide: Ac-CAAASYSDYDVFGGGTDFGP-{c2 linker-biotin}
modifications: reading uncertain
notes: Captured on a streptavidin-coated sensor chip; HSA injected as analyte; also called PEO-101.5
binding result [13]: binds

B6: Ala-17D12-CDR3 synthetic biotinylated peptide (acetyl-AAASYSDYDVFGGGTDFGP-c2 linker-biotin) (peptide)
peptide: Ac-AAASYSDYDVFGGGTDFGP-{c2 linker-biotin}
modifications: reading uncertain
notes: Captured on a streptavidin-coated sensor chip; HSA injected as analyte; also called PEO-100
binding result [13]: binds
